The results in this text go back to patent WO2022065344A1 (dated 2022).

Assay [1] deals with T1, HTLV-1 envelope protein gp62 extracellular region (gp46), expressed in 293T cells together with GLUT1 (HTLV-1, UniProt P03381 21-312).
T1 construct: also called HTLV-1-expressing cells; gp62-expressing cells
T1 sequence: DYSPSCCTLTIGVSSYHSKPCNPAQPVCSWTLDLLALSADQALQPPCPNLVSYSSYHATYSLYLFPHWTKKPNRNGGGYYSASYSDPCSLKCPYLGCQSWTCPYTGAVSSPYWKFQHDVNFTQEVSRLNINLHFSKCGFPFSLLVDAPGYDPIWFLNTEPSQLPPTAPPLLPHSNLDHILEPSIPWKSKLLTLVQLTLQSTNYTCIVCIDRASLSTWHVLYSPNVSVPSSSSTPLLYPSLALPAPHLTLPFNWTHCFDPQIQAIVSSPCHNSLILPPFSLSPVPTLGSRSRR
Briefly: flow cytometry on 293T cells transfected with HTLV-1 and GLUT1 vectors against pcDNA3.1 control cells.

In assay [2] the target is T2, gp46 partial peptide 188-199 with P192 replaced by Ala (HTLV-1).
T2 peptide: PPLLAHSNLDHI
Briefly: ELISA on Ala-substituted gp46 188-199 peptides.

In assay [3] the target is T3, gp46 partial peptide 188-199 with L196 replaced by Ala (HTLV-1).
T3 peptide: PPLLPHSNADHI
The assay can be described thus: ELISA on Ala-substituted gp46 188-199 peptides.

The target of assay [4] is T4, gp46 partial peptide 188-199 with L191 replaced by Ala (HTLV-1).
T4 peptide: PPLAPHSNLDHI
The assay can be described thus: ELISA on Ala-substituted gp46 188-199 peptides.

Assay [5] has as its target T5, gp46 partial peptide 188-199 with N195 replaced by Ala (HTLV-1).
T5 peptide: PPLLPHSALDHI
Briefly: ELISA on Ala-substituted gp46 188-199 peptides.

Assay [6] deals with T6, gp46 partial peptide 188-199 with S194 replaced by Ala (HTLV-1).
T6 peptide: PPLLPHANLDHI
The assay can be described thus: ELISA on Ala-substituted gp46 188-199 peptides.

For assay [7], the target named is T7, gp46 partial peptide 188-199 with H193 replaced by Ala (HTLV-1).
T7 peptide: PPLLPASNLDHI
The assay can be described thus: ELISA on Ala-substituted gp46 188-199 peptides.

The target of assay [8] is T8, HTLV-1 gp46 peptide 180-204 (HTLV-1).
T8 construct: also called HTLV-1 gp46 peptide 180 to 204; gp46 antigen peptide
T8 peptide: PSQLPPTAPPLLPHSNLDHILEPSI
The assay can be described thus: SPR, Biacore T200, antibody amine-coupled on CM5 chip, peptide as analyte, affinity (steady-state) analysis.

B1: rat anti-HTLV-1 monoclonal antibody rMAb98 (antibody, V domains shown)
VH: EVQLVESGGGLVQPGWSMKLSCAASGFTFSGSPMGWVRQAPTKGLEWVATISPTGATTYYRDSVKGRFTISRDNAKATLYLQMNSLRSEDTATYYCTREGYGYSSFDYWGQGVMVTVSS
VL: DIVMTQSPSSLAVSAGETVTINCKSSQSLLFSGYQKNYLAWYQQKPGQSPRLLIYWASTRQSGVPDRFIGSGSGTDFTLTVSSVQAEDVATYYCQQYFDTPLTFGSGTKLEIKR
Consider B1, for which the binding result in assay [1] is “binds”.

B2: rat anti-HTLV-1 monoclonal antibody rMAb1 (antibody, V domains shown)
VH: EIQLVESGGGLVQPGRSMKLSCEALGFTFGGFPMAWVRQAPTKGLEWVATISPGAVNTYYGDSVKGRFTISRDNAKSTLYLQMNSLRSEDTATYYCVREGYGFSSFEYWGQGVTVTVSP
VL: DIVMTQSPSSLAVSAGETVTIKCKSSQTLLYSGNQKNYLAWYQQKPGQSPKLLICWASTRQSSVPDRFIGSGSGTDFTLTISSVQAEDLAIYYCQQYFATPITFGSGTKLEIKR
For the molecule B2, the binding result in assay [2], in assay [3], in assay [4], in assay [5], in assay [6] and in assay [7] was “binds” in each case. In assay [1], the binding result was “binds”. In addition, binding in assay [8] was characterised by a dissociation constant (Kd) of 3.49 nM.

B3: humanized anti-HTLV-1 antibody hMAb1_H1L12 (antibody, human IgG1, kappa, V domains shown)
VH: EVQLVESGGGLVQPGGSLRLSCAASGFTFGGFPMAWVRQAPGKGLEWVSTISPGAVNTYYADSVKGRFTISRDNSKNTLYLQMNSLRAEDTAVYYCAREGYGFSSFEYWGQGTLVTVSS
VL: DIQMTQSPSSLSASVGDRVTITCKSSQTLLYSGNQKNYLAWYQQKPGKAPKLLISWASTRQSGVPSRFSGSGSGTDFTLTISSLQPEDFATYYCQQYFATPITFGQGTKVEIKR
notes: Human IgG1, kappa
Regarding B3, the binding result in assay [2], in assay [3], in assay [4], in assay [5], in assay [6] and in assay [7] was “binds” in each case.
